Measurements taken from PMC4783044, “Stoichiometry and Change of the mRNA Closed-Loop Factors as Translating Ribosomes Transit from Initiation to Elongation” (PLoS ONE, 2016).

T1: Flag-PAB1 (yeast, UniProt P04147 1-577)
T1 sequence (looked up): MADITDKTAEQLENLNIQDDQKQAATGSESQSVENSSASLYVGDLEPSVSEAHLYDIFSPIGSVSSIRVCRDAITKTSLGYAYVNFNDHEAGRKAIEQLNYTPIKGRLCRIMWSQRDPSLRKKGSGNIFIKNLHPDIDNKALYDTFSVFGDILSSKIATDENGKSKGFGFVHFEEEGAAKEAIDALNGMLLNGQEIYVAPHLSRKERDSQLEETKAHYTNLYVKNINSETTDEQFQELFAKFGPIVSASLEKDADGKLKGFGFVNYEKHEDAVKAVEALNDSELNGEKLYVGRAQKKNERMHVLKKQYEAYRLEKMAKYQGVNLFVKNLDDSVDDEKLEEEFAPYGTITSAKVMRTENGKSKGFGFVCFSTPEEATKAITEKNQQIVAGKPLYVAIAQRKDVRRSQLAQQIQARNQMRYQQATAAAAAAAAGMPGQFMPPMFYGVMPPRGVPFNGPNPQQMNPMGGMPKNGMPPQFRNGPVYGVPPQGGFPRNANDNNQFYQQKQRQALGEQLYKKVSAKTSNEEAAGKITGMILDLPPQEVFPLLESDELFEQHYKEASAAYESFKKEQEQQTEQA

T2: eIF4E-Flag (yeast, UniProt P07260 1-213)
T2 sequence (looked up): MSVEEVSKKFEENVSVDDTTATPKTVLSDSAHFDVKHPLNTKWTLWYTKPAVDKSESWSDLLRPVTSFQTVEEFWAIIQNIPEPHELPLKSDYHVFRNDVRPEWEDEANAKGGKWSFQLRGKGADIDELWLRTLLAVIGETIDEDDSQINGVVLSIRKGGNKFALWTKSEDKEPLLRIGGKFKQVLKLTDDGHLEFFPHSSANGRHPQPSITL


Tests used:
Flag-PAB1 [1] = target: T1, Flag-PAB1; experiment: co-IP + AUC; one-step anti-Flag bead purification from yeast crude extract (Tris pH 7.5, 0.15 M KCl, 2 mM MgCl2, 10% glycerol, 4°C), Flag peptide elution, then AU-FDS of the GFP fusion with AU-A230 or AU-A260 (20°C, 15,000 rpm); material migrating at 77S (monosomal translating complex); cycloheximide added to cells; cells on glucose (elongation), or glucose depleted 10 min and glucose added back for 1 min or 0 min (initiation)
eIF4E-Flag [2] = target: T2, eIF4E-Flag; experiment: co-IP + AUC; as a1, but material migrating from 90S to 200S (polysomal translating complexes); cells on glucose (elongation), or glucose depleted 10 min and glucose added back for 1 min (initiation); conditions: partners not purified
Flag-SBP1 (yeast) = Flag-SBP1 (yeast) (UniProt P10080); experiment: co-IP + AUC; one-step anti-Flag bead purification from yeast crude extract (Tris pH 7.5, 0.15 M KCl, 2 mM MgCl2, 10% glycerol, 4°C), Flag peptide elution, then AU-FDS of the GFP fusion with AU-A230 or AU-A260 (20°C, 15,000 rpm); material migrating at 77S (monosomal translating complex); cycloheximide added to cells; cells on glucose (elongation), or glucose depleted 10 min and glucose added back for 1 min or 0 min (initiation)
eIF4E-Flag [3] = target: T2, eIF4E-Flag; experiment: co-IP + AUC; one-step anti-Flag bead purification from yeast crude extract (Tris pH 7.5, 0.15 M KCl, 2 mM MgCl2, 10% glycerol, 4°C), Flag peptide elution, then AU-FDS of the GFP fusion with AU-A230 or AU-A260 (20°C, 15,000 rpm); material migrating at 77S (monosomal translating complex); cycloheximide added to cells; cells on glucose (elongation), or glucose depleted 10 min and glucose added back for 1 min or 0 min …; conditions: partners not purified
Flag-PAB1 [4] = target: T1, Flag-PAB1; experiment: as above; conditions: partners not purified
Flag-PAB1 [5] = target: T1, Flag-PAB1; experiment: co-IP + AUC; as a1, but material migrating from 90S to 200S (polysomal translating complexes); cells on glucose (elongation), or glucose depleted 10 min and glucose added back for 1 min (initiation); conditions: partners not purified

Sequence of Flag-SBP1 (yeast) (P10080 whole entry, the tested form may be a part): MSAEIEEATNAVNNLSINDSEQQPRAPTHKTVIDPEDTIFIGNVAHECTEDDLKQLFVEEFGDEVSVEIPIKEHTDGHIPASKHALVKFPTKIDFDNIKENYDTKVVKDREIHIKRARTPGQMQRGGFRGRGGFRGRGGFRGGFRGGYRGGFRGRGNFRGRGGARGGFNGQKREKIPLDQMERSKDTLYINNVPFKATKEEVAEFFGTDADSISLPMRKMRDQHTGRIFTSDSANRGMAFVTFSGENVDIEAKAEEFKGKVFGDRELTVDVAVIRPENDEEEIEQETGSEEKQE

Molecule	relative level in the 77S monosomal translating complex, mRNA set at 100 (elongation) (Flag-PAB1 [1]) [per 100 mRNA]	relative level in the polysomal translating complexes (90S to 200S), mRNA set at 100 (elongation) (eIF4E-Flag [2]) [per 100 mRNA]	relative level in the polysomal translating complexes (90S to 200S), mRNA set at 100 (initiation) (eIF4E-Flag [2]) [per 100 mRNA]	relative level in the 77S monosomal translating complex, mRNA set at 100 (elongation) (Flag-SBP1 (yeast)) [per 100 mRNA]	relative level in the 77S monosomal translating complex, mRNA set at 100 (elongation) (eIF4E-Flag [3]) [per 100 mRNA]	relative level in the 77S monosomal translating complex, mRNA set at 100 (initiation) (eIF4E-Flag [3]) [per 100 mRNA]	relative level in the 77S monosomal translating complex, mRNA set at 100 (elongation) (Flag-PAB1 [4]) [per 100 mRNA]	relative level in the 77S monosomal translating complex, mRNA set at 100 (initiation) (Flag-PAB1 [4]) [per 100 mRNA]	relative level in the polysomal translating complexes (90S to 200S), mRNA set at 100 (elongation) (Flag-PAB1 [5]) [per 100 mRNA]	relative level in the polysomal translating complexes (90S to 200S), mRNA set at 100 (initiation) (Flag-PAB1 [5]) [per 100 mRNA]
PUB1-GFP (from UniProt P32588 1-453) (natural protein)	< 0.3	–	–	–	–	–	–	–	–	–
PAB1-GFP (natural protein, yeast, UniProt P04147 1-577, looked up, the printed name puts GFP after the protein; source: yeast strain carrying the GFP fusion, in crude extract) MADITDKTAEQLENLNIQDDQKQAATGSESQSVENSSASLYVGDLEPSVSEAHLYDIFSPIGSVSSIRVCRDAITKTSLGYAYVNFNDHEAGRKAIEQLNYTPIKGRLCRIMWSQRDPSLRKKGSGNIFIKNLHPDIDNKALYDTFSVFGDILSSKIATDENGKSKGFGFVHFEEEGAAKEAIDALNGMLLNGQEIYVAPHLSRKERDSQLEETKAHYTNLYVKNINSETTDEQFQELFAKFGPIVSASLEKDADGKLKGFGFVNYEKHEDAVKAVEALNDSELNGEKLYVGRAQKKNERMHVLKKQYEAYRLEKMAKYQGVNLFVKNLDDSVDDEKLEEEFAPYGTITSAKVMRTENGKSKGFGFVCFSTPEEATKAITEKNQQIVAGKPLYVAIAQRKDVRRSQLAQQIQARNQMRYQQATAAAAAAAAGMPGQFMPPMFYGVMPPRGVPFNGPNPQQMNPMGGMPKNGMPPQFRNGPVYGVPPQGGFPRNANDNNQFYQQKQRQALGEQLYKKVSAKTSNEEAAGKITGMILDLPPQEVFPLLESDELFEQHYKEASAAYESFKKEQEQQTEQA	–	74	59	< 0.3	12	15	–	–	–	–
SLF1-GFP (natural protein, yeast, UniProt Q12034 1-447, looked up, source: yeast strain carrying the GFP fusion, in crude extract) MSSQNLNDNPKNTSSAAEDKKKQTSSLKLAPIPTTSPWKSSSPDSNTVIPVEELRDISKTAKPSKNGSGSIKLTSNTKWTPITPSVIISGSKDTNSKSGKNSKNSKTNKKMKKRGKYNNDINKKDFNGQTNSTSEISNVSNLESKPLDANAKVNIHSSSGATANGNIKRITNNNNSTNGRQSRNYQNRNGKTRYNNNSRHSQAANNAISFPNNYQARPEYIPNASHWLNNNSRNSYKQLSYFRQQQYYNNINYQQQLQTPYYYSMEPIFKSIESIKNQIEFYFSEENLKTDEFLRSKFKKANDGFIPMSLIGKFYRMVNLSLGGDPNLILASMREVLQHKETNHLEIALGSIEGAQKNMADDFNPLENYFIRRENWAEYAMESNFDENDDETEKYNIEKLLGPNDLDNYSYMGYPNFFPSNENGKKSQSYDQGEISRQFEQNLQIND	–	–	–	–	–	–	2.5	3.5	–	–

Second part, the molecule after the results:

relative level in the 77S monosomal translating complex, mRNA set at 100 (elongation) (Flag-PAB1 [1]) [per 100 mRNA]	relative level in the polysomal translating complexes (90S to 200S), mRNA set at 100 (elongation) (eIF4E-Flag [2]) [per 100 mRNA]	relative level in the polysomal translating complexes (90S to 200S), mRNA set at 100 (initiation) (eIF4E-Flag [2]) [per 100 mRNA]	relative level in the 77S monosomal translating complex, mRNA set at 100 (elongation) (Flag-SBP1 (yeast)) [per 100 mRNA]	relative level in the 77S monosomal translating complex, mRNA set at 100 (elongation) (eIF4E-Flag [3]) [per 100 mRNA]	relative level in the 77S monosomal translating complex, mRNA set at 100 (initiation) (eIF4E-Flag [3]) [per 100 mRNA]	relative level in the 77S monosomal translating complex, mRNA set at 100 (elongation) (Flag-PAB1 [4]) [per 100 mRNA]	relative level in the 77S monosomal translating complex, mRNA set at 100 (initiation) (Flag-PAB1 [4]) [per 100 mRNA]	relative level in the polysomal translating complexes (90S to 200S), mRNA set at 100 (elongation) (Flag-PAB1 [5]) [per 100 mRNA]	relative level in the polysomal translating complexes (90S to 200S), mRNA set at 100 (initiation) (Flag-PAB1 [5]) [per 100 mRNA]	Molecule
–	–	–	–	–	–	1	1.8	–	–	SSD1-GFP (natural protein, yeast, UniProt P24276 1-1250, looked up, source: yeast strain carrying the GFP fusion, in crude extract) MSKNSNVNNNRSQEPNNMFVQTTGGGKNAPKQIHVAHRRSQSELTNLMIEQFTLQKQLEQVQAQQQQLMAQQQQLAQQTGQYLSGNSGSNNHFTPQPPHPHYNSNGNSPGMSAGGSRSRTHSRNNSGYYHNSYDNNNNSNNPGSNSHRKTSSQSSIYGHSRRHSLGLNEAKKAAAEEQAKRISGGEAGVTVKIDSVQADSGSNSTTEQSDFKFPPPPNAHQGHRRATSNLSPPSFKFPPNSHGDNDDEFIATSSTHRRSKTRNNEYSPGINSNWRNQSQQPQQQLSPFRHRGSNSRDYNSFNTLEPPAIFQQGHKHRASNSSVHSFSSQGNNNGGGRKSLFAPYLPQANIPELIQEGRLVAGILRVNKKNRSDAWVSTDGALDADIYICGSKDRNRALEGDLVAVELLVVDDVWESKKEKEEKKRRKDASMQHDLIPLNSSDDYHNDASVTAATSNNFLSSPSSSDSLSKDDLSVRRKRSSTINNDSDSLSSPTKSGVRRRSSLKQRPTQKKNDDVEVEGQSLLLVEEEEINDKYKPLYAGHVVAVLDRIPGQLFSGTLGLLRPSQQANSDNNKPPQSPKIAWFKPTDKKVPLIAIPTELAPKDFVENADKYSEKLFVASIKRWPITSLHPFGILVSELGDIHDPDTEIDSILRDNNFLSNEYLDQKNPQKEKPSFQPLPLTAESLEYRRNFTDTNEYNIFAISELGWVSEFALHVRNNGNGTLELGCHVVDVTSHIEEGSSVDRRARKRSSAVFMPQKLVNLLPQSFNDELSLAPGKESATLSVVYTLDSSTLRIKSTWVGESTISPSNILSLEQLDEKLSTGSPTSYLSTVQEIARSFYARRINDPEATLLPTLSLLESLDDEKVKVDLNILDRTLGFVVINEIKRKVNSTVAEKIYTKLGDLALLRRQMQPIATKMASFRKKIQNFGYNFDTNTADELIKGVLKIKDDDVRVGIEILLFKTMPRARYFIAGKVDPDQYGHYALNLPIYTHFTAPMRRYADHVVHRQLKAVIHDTPYTEDMEALKITSEYCNFKKDCAYQAQEQAIHLLLCKTINDMGNTTGQLLTMATVLQVYESSFDVFIPEFGIEKRVHGDQLPLIKAEFDGTNRVLELHWQPGVDSATFIPADEKNPKSYRNSIKNKFRSTAAEIANIELDKEAESEPLISDPLSKELSDLHLTVPNLRLPSASDNKQNALEKFISTTETRIENDNYIQEIHELQKIPILLRAEVGMALPCLTVRALNPFMKRV
–	–	–	< 0.3	–	–	16	23	27	38	eIF4E-GFP (natural protein, yeast, UniProt P07260 1-213, looked up, the printed name puts GFP after the protein; source: yeast strain carrying the GFP fusion, in crude extract) MSVEEVSKKFEENVSVDDTTATPKTVLSDSAHFDVKHPLNTKWTLWYTKPAVDKSESWSDLLRPVTSFQTVEEFWAIIQNIPEPHELPLKSDYHVFRNDVRPEWEDEANAKGGKWSFQLRGKGADIDELWLRTLLAVIGETIDEDDSQINGVVLSIRKGGNKFALWTKSEDKEPLLRIGGKFKQVLKLTDDGHLEFFPHSSANGRHPQPSITL
–	75	79	< 0.3	19	20	5.6	8.7	18	26	eIF4G1-GFP (natural protein, yeast, UniProt P39935 1-952, looked up, eIF4G1 of yeast, GFP fusion; the printed name puts GFP after the protein; also called eIFG1; source: yeast strain carrying the GFP fusion at the chromosomal location, in crude extract) MTDETAHPTQSASKQESAALKQTGDDQQESQQQRGYTNYNNGSNYTQKKPYNSNRPHQQRGGKFGPNRYNNRGNYNGGGSFRGGHMGANSSNVPWTGYYNNYPVYYQPQQMAAAGSAPANPIPVEEKSPVPTKIEITTKSGEHLDLKEQHKAKLQSQERSTVSPQPESKLKETSDSTSTSTPTPTPSTNDSKASSEENISEAEKTRRNFIEQVKLRKAALEKKRKEQLEGSSGNNNIPMKTTPENVEEKGSDKPEVTEKTKPAEEKSAEPEVKQETPAEEGEQGEKGQIKEESTPKVLTFAERLKLKKQQKEREEKTEGKENKEVPVQEETKSAIESAPVPPSEQVKEETEVAETEQSNIDESATTPAIPTKSDEAEAEVEAEAGDAGTKIGLEAEIETTTDETDDGTNTVSHILNVLKDATPIEDVFSFNYPEGIEGPDIKYKKEHVKYTYGPTFLLQFKDKLNVKADAEWVQSTASKIVIPPGMGRGNRSRDSGRFGNNSSRGHDFRNTSVRNMDDRANSRTSSKRRSKRMNDDRRSNRSYTSRRDRERGSYRNEEKREDDKPKEEVAPLVPSANRWVPKFKSKKTEKKLAPDGKTELLDKDEVERKMKSLLNKLTLEMFDAISSEILAIANISVWETNGETLKAVIEQIFLKACDEPHWSSMYAQLCGKVVKELNPDITDETNEGKTGPKLVLHYLVARCHAEFDKGWTDKLPTNEDGTPLEPEMMSEEYYAAASAKRRGLGLVRFIGFLYRLNLLTGKMMFECFRRLMKDLTDSPSEETLESVVELLNTVGEQFETDSFRTGQATLEGSQLLDSLFGILDNIIQTAKISSRIKFKLIDIKELRHDKNWNSDKKDNGPKTIQQIHEEEERQRQLKNNSRSNSRRTNNSSNRHSFRRDAPPASKDSFITTRTYSQRNSQRAPPPKEEPAAPTSTATNMFSALMGESDDEE
